Measured values reported in the nanobody polyreactivity screen of Harvey et al. (2022).

Test: yeast display, Sf9 membrane polyspecificity reagent, FACS + sequencing; frameworks hold sequencing errors
Method in brief: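 After 36–48 hours of galactose induction, yeast (Saccharomyces cerevisiae BJ5465) displaying a synthetic nanobody library were stained at 4 °C for 1 hour with 10% biotinylated, detergent-solubilized Sf9 membrane reagent. Streptavidin microbeads enriched the stained cells before FACS sorting into low and high (top ~1%) gates on anti-HA and streptavidin fluorescence. Each clone's polyreactivity label reflects its gate of origin.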

Sequence	polyreactivity (PSR sort gate)
QVQLVESGGGLVQARGSLRLSCAASGFTFDFYAMGWYRQAPGKERELVAAISKNDGTTYYADSVKGRFTISRDNAKNTVYLQMNSLKREDTAVYYCAAESGYPDYTYVSSGDYWGQGTQVTVSS	low polyreactivity
QVQLVESGGGLVQAGGSLRLSCAASGRIFTRYAMGWYRHAPGKERELVAAITASGGRTYYADSVKGRFTISRDNAKNTVYLQMNSLKPEDTAVYYCAATYHRYYETQDSYDYWGQGTQVTVSS	high polyreactivity
QVQLVESGGGLVQAGGSLRLSCAASGRIFYYYDMGWYRQAPGKARELVAAITSAGITYYADSVKGRFTISRDNAKNTVYLQMNSLKPEDTAVYYCAVEFYDKRWPYRGGYWGQGTQVTVSS	low polyreactivity
QVQLVESGGGLVQAGGSLRLSCAASGLTLETNAMGWYRQAPGKERELVAGITYSGGTTYYADSVKGRFTISRDNAKNTVYLQMNSLKPEDTAVYYCAAHTRTSGHNYWGQGTQVTVSS	low polyreactivity
QVQLVESGGGLVQAGGSLRLSCAASGRTSRFYAMGWYRQAPGKERELVARITTRGGSTYYADSVKGRFTISRDNAKNTVYLQMNSLKPEDTAVYYCNAERAGTYRYDYWGQGTQVTVSS	high polyreactivity
QVQLVESGGGLVQAGGSLRLSCAASGLILVPNTMGWYRQAPGKESELVAAISDSGGGTYYADSVKGRFTISRDNAKNTVYLQMISLKPEDTAVYYCAAYGKRESAPYGYWGQGTQVTVSS	low polyreactivity
QVQLVESGGGLVQAGGSLRLSCAASGITFRYYAMGWYRQAPGKERELVATITRGGSTYYADSVKGRFTISRDNAKNTVYLQMNSLKPEDTADYYCAAAGQRYTYWVDYWGQGTQVTVSS	high polyreactivity
QVQLVESGGALVQAGGSLRLSCAASGSTFVTYAMGWYRQAPGKEREFVAAISWRGGRTYYADSVKGRFSISRDNAKNTVYLQMNSLKPEDTAVYYCAVRTLQRGKHDLGVDYWGQGTQVTVSS	high polyreactivity
QVQLVESGGGLVQAGGSLRLSCAASGSIFYFYAMGWYRQAPGKERELVAAITSGGSTYYADSVEGRFTISRDNAKNTVYLQMNSLKPEDTAVYYCAAQFYDLYHGTTYDYWGQGTQVTVSS	high polyreactivity
QVQLVESGGGLVQAGGSLRLSCAASGRIFLYNAMGWYRQAPGKEREFVATISYSGGRTNYADSVKGRFTISRDNAKNTVYLQMNSLKPEDTAVYYCAARWPWFYAHAYDYWGQGTQVTVSS	high polyreactivity
QVQLVESGGGLVQAGGSLRLSCAASGSIFAWNAMGWYRQAPGKERELVAAIRWSSGRTNYADSVKGRFTISRDNAKNTVYLQMNSLKPEDTAVYYCNARVVNYFRPRTGAREYDYWGQGTQVTVSS	high polyreactivity
QVQLVESGGGLVQAGGSLRLSCAASGRTFSPYAMGWYRQAPGKERELVAAIYNGGSTYYADSVKGRFTISRDNAKNTVYLQMNSLKPEDTAVYYCAAGRKSLYRIYSEYVEFDYWGQGTQVTVSS	low polyreactivity
QVQLVESGGGLVQAGGSLRLSCAASGLIFNLYAMGWYRQAPGKEREFVATITGIGGSTYYADSVKGRFTISRDIAKNTVYLQMNSLKPDDTAVYYCAADAWFVPYNYWGQGTQVTVSS	low polyreactivity
QLHLVESGGGLVQAGGSLRLSCAASGRIFFYAMGWYRQAPGKERDLVASITTSGTSTYYADSVKGRFTISRDNSKNTVYLEMNSLKPEDTSVYYCNATSNSIRWYDFYYWGQGTQVTVSS	low polyreactivity
QYQLGESGGGLVQAGGSLRLSCAASGRIFTWNAMGWYRQAPGKERELVAAIRRGGGTYADSVKGRYTISRDNGKNTFYLQMHSLKPEDTAVYYCAATSGYYAMNYWGQGTQVTVSS	high polyreactivity
QVQLGESGGGLVQAGGSLRLSCAASGRTITRNAMGWYRQAPGKERELVAAISYSGGSTYYADSVKGRFTISRDNAKNTVYLQMNSLKPEDTAVYYFNAATSRRSIRYDYWGQGTQVTVSS	high polyreactivity

Sequence	polyreactivity (PSR sort gate)
QVQLVESGGGLVQAGGSLRLSCAASGLTFGAYAMGWYRQAPGKEREFVAAITYSGGSTNYADSVKGRFTISRDNAKNTVYLQMNSLKPEDTAVYFCNAGYYSPWAFYPYAYWGQGTQVTVSS	high polyreactivity
QVQLVESGGGLVQAGGSLRLSCAASGSTFADYVMGWYRQAPGKERELVAAISRSGGSTYYADSVKGRFTISRDNAKNTVYLQMNSLKPEDTAVYYCATDITPAISVEYDYWGQGTQVTVSS	high polyreactivity
QVQLVESGGGLVQAGGSLRLSCAASGSIFTVNAMGWYRQAPGKERELVATITNGGGTYYADSVKGRFTISRDNAKNTVYLQMNSLKPEDTAVYYCAARTWGHYDYWGQGTQVTVSS	low polyreactivity
QVQLVESGGGLVQAGGSLRISCAASGRIFSWYVMGWYRQAPGKERELVAAISSGGSTYYADSVKGRFTISRDNAKNTVSFQMNSLKPEDTAVYYCAVRPYVYRIGASRLDYWGQGTQVTVSS	high polyreactivity
QVQLVESGGGLVQAGGSLRLSCAASGIIFRWNAMGSYRQAPGKERELVAAITRSGGSTYYADSVKGRFTISRDNAKNTVYLQMNSLKPEDTAVYYCAAEYYAPRYKFDYWGQGTQVTVSS	high polyreactivity
QVQLVESGGGLVQAGGRLRLSCAASGRTFYGYAMGWYRQAPGKEREMVAAITQRGVSTYADSVKGRFTISRDNAKNTVYLQMNSLKQEDTAVYYCAADQIERFRDQTWDFDYWGQGTQVTVSS	low polyreactivity
QVQLVESGGGLVQAGGSLRLSCAASGNIVGSNAMGWYRQAPGKERELVAAISKSGGRTYYADSVKGRFTISRDNAKNTVYLQMNSLKPEDTAVYYCAAYDGYYEFDYWGQGTQVTVSS	low polyreactivity
QVQLVESGGGLVQAGGSLRLSCAASGSTLNIYAMGWYRQAPGKERELVAAISWTDDTTYYADSVKGRFTISRDNAKNTVYLQMNSLKPEDTAVYYCAAEIYSWSDAQQYDYWGQGTQVTVSS	high polyreactivity
QVQLVESGGGLVQAGGSLRLSCAASGSIFGVYAMGRYIQAPRKERELVASISRGGSTNYADSVKGRFTISRDNAKNTVYLQMKSLKPEDTAVYYCASDGVYQGWTWLYGLRYNYWGQGTQVTVSS	low polyreactivity
QVQLVESGGGLVHAGGSLRLSCAASGFTFAYNAMGWYRQAPGKERELVAAIRRRGGITYYADSVKGRFTISRDNAKNTVYLQMNSLKPEDTAVYYCNAVRSYPAGYDSWGQGTQVTVSS	low polyreactivity
QDQLVESGGGLVQAGGSLRLSCAASGLIFTGNVMGWYRQEPGKERELVAAISRSGGRTYYADSVKGRFTISRDNAKNTVYLQMNSLKREDTAVYYCNKVSPERVYYGSYFRYYYWGQGTQVTVSS	high polyreactivity
QVQLLESGGGLVQAGGSLRLSCAASGSTFYYYAMGWYRQAPGKERELVAAITSGGRTYYADSQKGRFTNSRDNAKNTVYLQMNSLKPEDTAVYYSNKRWTIWGYDYWAQGTQVTVSS	high polyreactivity
QVQLVESGGRLVQAGGSLRLSCAASGSTFGPYTMGWYRQAPGKERELVATISSGGSTYYADSVKGRFTISRDNAKNTVYLQMNSLKPEDTAVYYCAARYWSIYDYWGQGTQVTVSS	low polyreactivity
QVQLVESGGGLVQAGGSLRLSCAASGRIFSYNAMGWYRQAPGKERELVASISYSGTSTYYADSVKGRFTISRDNAKKTVYLQMNSLKPEDTAVYYCAALSRRRFGYWGQGTQVTVSS	high polyreactivity
QVQLVESGGGLVQAGGSLRLSCAASGFIFTGNAMGWYRQAPGKERELVAAITQSGGHTSYADSVKGRFTISRDNAKNTVYLQMNSLKPEDTAVYYCNAEYTWPYHGVRNGWFNFKYEYWGQGTQVTVSS	low polyreactivity
QVQLVESGGGLVQAGGSLRLSCAASGFIFASNAMGWYRQEPGKERELVASITIGDSTYYADSVKGRFTISRDNAKNTVYLQMNSLKPEDTAVYYCAAVKTVDVGYDYWGQGTQVTVSS	low polyreactivity
